Measured values: the supplement of paper PMC9112550, “Optimization of the antimicrobial peptide Bac7 by deep mutational scanning” (BMC Biology, 2022)

Tested on: Escherichia coli TOP10
Assay: shrunken log2 fold change of peptide-encoding DNA abundance (4.5 h post-induction vs induction); higher = less antimicrobial activity (less host growth inhibition)
Settings: time post-induction: 4.5 h; library: site-saturation at positions 5, 18, 19, 20
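Also: peptides expressed intracellularly from a pBAD plasmid library in pooled LB shake-flask culture, induced with 0.3% L-arabinose, DNA abundance read by NGS, three biological replicates, DESeq2 with apeglm shrinkage.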

In the case of RRIRKRPPRLPRPRPRPHWNPRP, the “shrunken log2 fold change” value is reported as -0.296.

With RRIRKRPPRLPRPRPRPHWSPRP the “shrunken log2 fold change” value was 0.139.

In the case of RRIRKRPPRLPRPRPRPHYCPRP, the “shrunken log2 fold change” value is reported as -0.00783.

In the case of RRIRKRPPRLPRPRPRPHYFPRP, the “shrunken log2 fold change” value is reported as -0.268.

For RRIRKRPPRLPRPRPRPIAEPRP, the “shrunken log2 fold change” value was 0.0504.

For RRIRKRPPRLPRPRPRPIAMPRP, the “shrunken log2 fold change” value was 0.147.

With RRIRKRPPRLPRPRPRPIDQPRP the “shrunken log2 fold change” value was 0.122.

With RRIRKRPPRLPRPRPRPIEGPRP the “shrunken log2 fold change” value was -0.00926.

With RRIRKRPPRLPRPRPRPIGMPRP the “shrunken log2 fold change” value was 0.213.

With RRIRKRPPRLPRPRPRPIIIPRP the “shrunken log2 fold change” value was -0.104.

RRIRKRPPRLPRPRPRPIKDPRP was tested, and the “shrunken log2 fold change” value was -0.00059.

In the case of RRIRKRPPRLPRPRPRPIKHPRP, the “shrunken log2 fold change” value is reported as 0.567.

For RRIRKRPPRLPRPRPRPIKKPRP, the “shrunken log2 fold change” value was -0.077.

In the case of RRIRKRPPRLPRPRPRPIKWPRP, the “shrunken log2 fold change” value is reported as 0.00487.

With RRIRKRPPRLPRPRPRPIKYPRP the “shrunken log2 fold change” value was 0.0425.

In the case of RRIRKRPPRLPRPRPRPILQPRP, the “shrunken log2 fold change” value is reported as 0.0319.

With RRIRKRPPRLPRPRPRPIMAPRP the “shrunken log2 fold change” value was 0.0791.

RRIRKRPPRLPRPRPRPIMFPRP was tested, and the “shrunken log2 fold change” value was -0.21.

For RRIRKRPPRLPRPRPRPINFPRP, the “shrunken log2 fold change” value was -0.962.

For RRIRKRPPRLPRPRPRPINSPRP, the “shrunken log2 fold change” value was -0.395.

RRIRKRPPRLPRPRPRPINVPRP was tested, and the “shrunken log2 fold change” value was 0.095.

In the case of RRIRKRPPRLPRPRPRPIQGPRP, the “shrunken log2 fold change” value is reported as -0.0243.

With RRIRKRPPRLPRPRPRPIQPPRP the “shrunken log2 fold change” value was -0.00952.

With RRIRKRPPRLPRPRPRPISNPRP the “shrunken log2 fold change” value was 0.153.

In the case of RRIRKRPPRLPRPRPRPIVNPRP, the “shrunken log2 fold change” value is reported as 0.219.

For RRIRKRPPRLPRPRPRPIWHPRP, the “shrunken log2 fold change” value was 0.248.

RRIRKRPPRLPRPRPRPIWRPRP was tested, and the “shrunken log2 fold change” value was 0.132.

For RRIRKRPPRLPRPRPRPIYFPRP, the “shrunken log2 fold change” value was 0.216.

In the case of RRIRKRPPRLPRPRPRPKAPPRP, the “shrunken log2 fold change” value is reported as 0.62.

In the case of RRIRKRPPRLPRPRPRPKCEPRP, the “shrunken log2 fold change” value is reported as 0.848.

For RRIRKRPPRLPRPRPRPKCFPRP, the “shrunken log2 fold change” value was 0.00084.

With RRIRKRPPRLPRPRPRPKCQPRP the “shrunken log2 fold change” value was 0.03.

With RRIRKRPPRLPRPRPRPKCSPRP the “shrunken log2 fold change” value was 0.00677.

For RRIRKRPPRLPRPRPRPKDEPRP, the “shrunken log2 fold change” value was 0.0833.

For RRIRKRPPRLPRPRPRPKDHPRP, the “shrunken log2 fold change” value was 0.308.

With RRIRKRPPRLPRPRPRPKEMPRP the “shrunken log2 fold change” value was 0.682.

With RRIRKRPPRLPRPRPRPKFDPRP the “shrunken log2 fold change” value was -0.146.

For RRIRKRPPRLPRPRPRPKFQPRP, the “shrunken log2 fold change” value was 0.343.

For RRIRKRPPRLPRPRPRPKHIPRP, the “shrunken log2 fold change” value was -0.0252.

With RRIRKRPPRLPRPRPRPKKWPRP the “shrunken log2 fold change” value was 0.406.

RRIRKRPPRLPRPRPRPKMHPRP was tested, and the “shrunken log2 fold change” value was 0.483.

RRIRKRPPRLPRPRPRPKNDPRP was tested, and the “shrunken log2 fold change” value was 0.186.

In the case of RRIRKRPPRLPRPRPRPKNHPRP, the “shrunken log2 fold change” value is reported as 0.109.

With RRIRKRPPRLPRPRPRPKPFPRP the “shrunken log2 fold change” value was 0.611.

With RRIRKRPPRLPRPRPRPKPHPRP the “shrunken log2 fold change” value was 0.747.

In the case of RRIRKRPPRLPRPRPRPKQSPRP, the “shrunken log2 fold change” value is reported as 0.525.

With RRIRKRPPRLPRPRPRPKQYPRP the “shrunken log2 fold change” value was -0.222.

With RRIRKRPPRLPRPRPRPKRDPRP the “shrunken log2 fold change” value was 0.539.

With RRIRKRPPRLPRPRPRPKRFPRP the “shrunken log2 fold change” value was -0.0257.

With RRIRKRPPRLPRPRPRPKRHPRP the “shrunken log2 fold change” value was 0.255.

For RRIRKRPPRLPRPRPRPKSFPRP, the “shrunken log2 fold change” value was -0.125.

With RRIRKRPPRLPRPRPRPKTEPRP the “shrunken log2 fold change” value was -0.0466.

In the case of RRIRKRPPRLPRPRPRPKTSPRP, the “shrunken log2 fold change” value is reported as 0.489.

RRIRKRPPRLPRPRPRPKWFPRP was tested, and the “shrunken log2 fold change” value was -0.039.

RRIRKRPPRLPRPRPRPKWNPRP was tested, and the “shrunken log2 fold change” value was 0.392.

RRIRKRPPRLPRPRPRPKYDPRP was tested, and the “shrunken log2 fold change” value was 0.38.

For RRIRKRPPRLPRPRPRPKYFPRP, the “shrunken log2 fold change” value was -0.098.

For RRIRKRPPRLPRPRPRPLAAPRP, the “shrunken log2 fold change” value was 0.847.

In the case of RRIRKRPPRLPRPRPRPLACPRP, the “shrunken log2 fold change” value is reported as -0.0149.

RRIRKRPPRLPRPRPRPLCQPRP was tested, and the “shrunken log2 fold change” value was 0.206.
